Measurements from patent US20130315928A1.

Columns and labels:
[1] = target: equine choriogonadotropin (eCG) or PMSG (equine) (UniProt P01220); test: ELISA on commercial eCG, antibody at 1 µg/ml
[2] = target: equine choriogonadotropin (eCG) or PMSG (equine) (UniProt P01220); test: ELISA on commercial eCG, antibody at 10 µg/ml

Sequence of equine choriogonadotropin (eCG) or PMSG (equine) (P01220 25-120 limits assumed, chain 1 of 2): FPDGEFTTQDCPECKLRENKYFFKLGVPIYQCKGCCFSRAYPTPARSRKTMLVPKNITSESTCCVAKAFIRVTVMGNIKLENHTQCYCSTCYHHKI
Sequence of equine choriogonadotropin (eCG) or PMSG (equine) (P08751 21-169 limits assumed, chain 2 of 2, further chain): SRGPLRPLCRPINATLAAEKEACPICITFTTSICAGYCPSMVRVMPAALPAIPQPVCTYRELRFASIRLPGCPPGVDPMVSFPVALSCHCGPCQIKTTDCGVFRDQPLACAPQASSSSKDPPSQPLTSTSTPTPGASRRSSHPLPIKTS

isotypic control (IgM directed against another type of antigen very remote from the gonadotropic hormones) (antibody)
OD [1]: 0.09 OD
OD [2]: 0.09 OD
